Data as given in patent publication US20220306744A1 (CRESCENDO BIOLOGICS, published 2022).
Residue numbers refer to the chain shown, from its start. One block for each binder: values may come before it.

Target: T1, human PD-1 expressed on cells (CHO TREX human PD1 cell line, full-length human PD-1 sequence) (human, UniProt Q15116 21-288)
T1 construct: Also used for human PD-1 on Jurkat reporter cells, on PathHunter cells and on PHA-stimulated human CD4+ T cells; also called CHO human PD1 cells; CHO human PD-1 cells
T1 sequence (Q15116 21-288): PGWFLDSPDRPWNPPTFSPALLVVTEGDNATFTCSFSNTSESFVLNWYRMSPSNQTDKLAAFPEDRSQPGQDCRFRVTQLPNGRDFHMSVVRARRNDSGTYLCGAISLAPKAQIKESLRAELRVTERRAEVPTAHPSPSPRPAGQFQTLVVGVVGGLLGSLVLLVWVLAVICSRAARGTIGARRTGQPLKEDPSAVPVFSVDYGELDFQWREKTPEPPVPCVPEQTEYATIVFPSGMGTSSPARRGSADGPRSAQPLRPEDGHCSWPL
Assay: worded summary of the screens

B1: 1.13a (VHH)
VHH: QVQLVESGGGLVQPGRSLRLSCAASGFTFDDYAMHWVRQAPGKDLEWVSGISWNGGSMGYAASVKGRFTISRDNAQNSLYLQMNSLRAEDTALYYCVKDKGPGLIGSTADYYGLDVWGQGTTVTVSS
binding result: binds

B2: 1.7a (VHH)
VHH: B1 VHH with Q1E, L11V, V12I, D44G, L45R, A62E, T91S, I105T, S107T, L114M
binding result: binds

B3: 1.15a (VHH)
VHH: B1 VHH with Q1E, V5L, A23T, D44G, L45R, G55S, A62E, Q76K, T91S, L114M
binding result: binds

B4: 1.17a (VHH)
VHH: B1 VHH with Q1E, V5L, R16G, D44G, G55S, G66D, Q76K, R87T, A88T, Y112H
binding result: binds

B5: 1.45a (VHH)
VHH: EVQLVESGGGLVQPGRSLRLSCAASGFTFDDYALHWVRQAPGKDLEWVSGISWNAGSQGYADSVKGRFTISRDNAKNSLYLQMNSLRAEDTALYYCVREKGPGLTGSTADYYGLDAWGQGTMVTVSS
binding result: binds

B6: 1.30a (VHH)
VHH: B5 VHH with L34G, A55G, Q58M, D62A
binding result: binds

B7: 1.43a (VHH)
VHH: B5 VHH with L34F, Q58Y
binding result: binds

B8: 1.36a (VHH)
VHH: B5 VHH with L34M, Q58M
binding result: binds

B9: 1.40a (VHH)
VHH: B5 VHH with A55G
binding result: binds

B10: 1.42a (VHH)
VHH: B5 VHH with L34F, A55G
binding result: binds

B11: 1.29a (VHH)
VHH: B5 VHH with L34M, A55S, Q58M, A116V
binding result: binds

B12: 1.16a (VHH)
VHH: B1 VHH with D44G, L45R, A62E, Q76K, T91S, L114M
binding result: binds

B13: 1.49a (VHH)
VHH: B5 VHH with L34F, A55S
binding result: binds

B14: 1.23a (VHH)
VHH: B5 VHH with L34M, A55S, Q58M, D62A, A116V
binding result: binds

B15: 1.34a (VHH)
VHH: B5 VHH with L34M, A55G
binding result: binds

B16: 1.32a (VHH)
VHH: B5 VHH with L34M, A55S, Q58M
binding result: binds

B17: 1.37a (VHH)
VHH: B5 VHH with L34F, A55G, Q58M
binding result: binds

B18: 1.28a (VHH)
VHH: B5 VHH with L34M, Q58M, D62A
binding result: binds

B38: 1.51a (VHH)
VHH: EVQLVESGGGVVRPGGSLRLSCAASGFTFDDYAMSWVRQAPGKGLEWVSGITWNGGSTGYADSVKDRFTISRDNAKNSLYLQMNSLRAEDTALYYCVRDKYSYAWSYDGFDIWGQGTMVTVSS
binding result: binds

Continued, values first:

binding result: binds
B19: 1.21a (VHH)
VHH: B5 VHH with L34M, A55G, Q58M, D62A, A116V

binding result: binds
B20: 1.41a (VHH)
VHH: B5 VHH with L34F, A55G, Q58Y

binding result: binds
B21: 1.24a (VHH)
VHH: B5 VHH with L34M, A55S, Q58M, D62A

binding result: binds
B22: 1.14a (VHH)
VHH: B1 VHH with Q1E, D31G, D44G, L45R, G55S, A62E, Q76K, T91S, I105T, L114M

binding result: binds
B23: 1.27a (VHH)
VHH: B5 VHH with L34M, A55G, Q58R, D62A

binding result: binds
B24: 1.50a (VHH)
VHH: B5 VHH with L34F

binding result: binds
B25: 1.18a (VHH)
VHH: B1 VHH with Q76K

binding result: binds
B26: 1.22a (VHH)
VHH: B5 VHH with L34M, A55G, Q58M, D62A

binding result: binds
B27: 1.44a (VHH)
VHH: B5 VHH with A55S, Q58Y

binding result: binds
B28: 1.38a (VHH)
VHH: B5 VHH with A55G, Q58M

binding result: binds
B29: 1.39a (VHH)
VHH: B5 VHH with A55G, Q58Y
notes: also called Humabody 1.39a

binding result: binds
B30: 1.35a (VHH)
VHH: B5 VHH with L34M, A55G, Q58K

binding result: binds
B31: 1.48a (VHH)
VHH: B5 VHH with A55S

binding result: binds
B32: 1.25a (VHH)
VHH: B5 VHH with L34M, A55G, D62A

binding result: binds
B33: 1.47a (VHH)
VHH: B5 VHH with L34F, A55S, Q58Y

binding result: binds
B34: 1.31a (VHH)
VHH: B5 VHH with A55G, Q58M, D62A

binding result: binds
B35: 1.46a (VHH)
VHH: B5 VHH with Q58Y

binding result: binds
B36: 1.33a (VHH)
VHH: B5 VHH with L34M, A55G, Q58Y

binding result: binds
B37: 1.6a (VHH)
VHH: EVQLVESGGGVVQPGRSLRLSCAASGFTFSSYAMHWVRQAPGKGREWVSGISWNSGSMGYAESVKGRFTISRDNAKNSLYLQMNSLRAEDSALYYCVKDKGPGLTGTTADYYGMDVWGQGTTVTVSS

binding result: binds
B39: 1.60a (VHH)
VHH: B38 VHH with E1Q, T52S, V97A, K100P, Y103G, G109A

binding result: binds
B40: 1.58a (VHH)
VHH: B38 VHH with E1Q, V11L, R13Q, T52S, T58A, V97A, K100P, Y101H, Y103S, G109A

binding result: binds
B41: 1.59a (VHH)
VHH: B38 VHH with E1Q, T52S, T58K, V97A, K100P, Y103G, G109A
